T1: Trx-hHR23AFL (human, UniProt P54725 1-363)
T1 construct: human hHR23A, full length (FL); source: E. coli Rosetta 2 (DE3) or Rosetta 2 (DE3) pLysS, purified (HisTrap, gel filtration)
T1 sequence (looked up): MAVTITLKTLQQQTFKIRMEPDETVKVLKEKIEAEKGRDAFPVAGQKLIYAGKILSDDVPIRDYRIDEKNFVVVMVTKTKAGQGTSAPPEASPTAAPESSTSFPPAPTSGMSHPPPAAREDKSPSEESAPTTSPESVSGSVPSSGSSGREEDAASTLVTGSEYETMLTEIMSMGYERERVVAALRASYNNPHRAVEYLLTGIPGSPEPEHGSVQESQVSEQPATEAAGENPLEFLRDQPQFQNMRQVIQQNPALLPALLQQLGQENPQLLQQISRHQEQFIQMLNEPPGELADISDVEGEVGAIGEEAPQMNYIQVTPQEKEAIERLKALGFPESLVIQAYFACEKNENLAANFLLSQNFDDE

T2: GST-hHR23A, residues 1–363 (WT hHR23AFL) (human, UniProt P54725 1-363)
T2 construct: human hHR23A, full length, residues 1–363; also called GST-tagged WT hHR23A; source: recombinant
T2 sequence (looked up): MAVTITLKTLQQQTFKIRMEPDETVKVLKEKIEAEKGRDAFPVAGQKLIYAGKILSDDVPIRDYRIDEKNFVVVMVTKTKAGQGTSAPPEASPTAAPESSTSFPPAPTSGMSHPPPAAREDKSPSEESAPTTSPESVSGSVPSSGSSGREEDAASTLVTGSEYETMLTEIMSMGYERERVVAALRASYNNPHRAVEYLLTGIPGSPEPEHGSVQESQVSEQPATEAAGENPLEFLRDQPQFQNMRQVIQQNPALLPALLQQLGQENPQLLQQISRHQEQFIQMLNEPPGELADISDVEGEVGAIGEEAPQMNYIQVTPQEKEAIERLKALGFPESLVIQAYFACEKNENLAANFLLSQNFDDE

T3: GST-hHR23B, residues 1–409 (human, UniProt P54727 1-409)
T3 construct: human hHR23B, residues 1–409; source: recombinant
T3 sequence (looked up): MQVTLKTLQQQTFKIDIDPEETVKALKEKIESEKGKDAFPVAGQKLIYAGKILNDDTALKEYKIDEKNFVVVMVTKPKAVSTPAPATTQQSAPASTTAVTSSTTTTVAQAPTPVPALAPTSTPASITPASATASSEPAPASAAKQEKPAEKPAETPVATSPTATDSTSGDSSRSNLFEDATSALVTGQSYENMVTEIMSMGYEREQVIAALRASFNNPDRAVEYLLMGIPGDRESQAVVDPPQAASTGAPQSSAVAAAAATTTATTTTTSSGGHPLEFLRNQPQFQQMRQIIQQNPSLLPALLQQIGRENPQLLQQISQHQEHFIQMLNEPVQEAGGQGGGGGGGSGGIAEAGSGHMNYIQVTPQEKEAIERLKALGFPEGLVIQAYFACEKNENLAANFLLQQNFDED

T4: GST-hHR23B, residues 262–409 (human, UniProt P54727 262-409)
T4 construct: human hHR23B, residues 262–409; also called C-terminal half of hHR23B; source: recombinant
T4 sequence (looked up): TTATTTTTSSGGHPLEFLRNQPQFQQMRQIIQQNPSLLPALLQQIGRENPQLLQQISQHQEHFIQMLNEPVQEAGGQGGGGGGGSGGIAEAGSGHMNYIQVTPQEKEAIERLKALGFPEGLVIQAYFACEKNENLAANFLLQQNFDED


Tests used:
Settings in all cases: both partners purified
Trx-hHR23AFL = target: T1, Trx-hHR23AFL; experiment: ITC; NusA–Vpr1–79 (8.5 µM) in the cell, Trx-hHR23AFL or DCAF1 1045–1396/DDB1 (100 μM) added in aliquots; 18 °C; 20 mM sodium phosphate pH 7.4, 100 mM NaCl
DCAF1_(1045–1396)/DDB1 = target: T5, DCAF1_(1045–1396)/DDB1 (UniProt Q9Y4B6 1045-1396; Q16531 1-1140); experiment: as above
T5 construct: DCAF1, residues 1045-1396; DDB1
T5 sequence (Q9Y4B6 1045-1396, chain 1 of 2): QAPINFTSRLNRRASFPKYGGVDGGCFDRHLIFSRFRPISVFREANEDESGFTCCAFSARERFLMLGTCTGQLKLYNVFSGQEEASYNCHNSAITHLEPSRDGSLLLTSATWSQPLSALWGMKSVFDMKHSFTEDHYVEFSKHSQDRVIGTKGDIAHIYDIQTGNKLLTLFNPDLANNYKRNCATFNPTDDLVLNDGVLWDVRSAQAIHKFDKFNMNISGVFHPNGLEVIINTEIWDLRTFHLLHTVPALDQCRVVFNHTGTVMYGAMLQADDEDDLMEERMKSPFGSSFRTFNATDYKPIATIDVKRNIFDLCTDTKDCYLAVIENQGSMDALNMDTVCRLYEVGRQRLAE
T5 sequence (Q16531 whole entry, chain 2 of 2, the tested form may be a part): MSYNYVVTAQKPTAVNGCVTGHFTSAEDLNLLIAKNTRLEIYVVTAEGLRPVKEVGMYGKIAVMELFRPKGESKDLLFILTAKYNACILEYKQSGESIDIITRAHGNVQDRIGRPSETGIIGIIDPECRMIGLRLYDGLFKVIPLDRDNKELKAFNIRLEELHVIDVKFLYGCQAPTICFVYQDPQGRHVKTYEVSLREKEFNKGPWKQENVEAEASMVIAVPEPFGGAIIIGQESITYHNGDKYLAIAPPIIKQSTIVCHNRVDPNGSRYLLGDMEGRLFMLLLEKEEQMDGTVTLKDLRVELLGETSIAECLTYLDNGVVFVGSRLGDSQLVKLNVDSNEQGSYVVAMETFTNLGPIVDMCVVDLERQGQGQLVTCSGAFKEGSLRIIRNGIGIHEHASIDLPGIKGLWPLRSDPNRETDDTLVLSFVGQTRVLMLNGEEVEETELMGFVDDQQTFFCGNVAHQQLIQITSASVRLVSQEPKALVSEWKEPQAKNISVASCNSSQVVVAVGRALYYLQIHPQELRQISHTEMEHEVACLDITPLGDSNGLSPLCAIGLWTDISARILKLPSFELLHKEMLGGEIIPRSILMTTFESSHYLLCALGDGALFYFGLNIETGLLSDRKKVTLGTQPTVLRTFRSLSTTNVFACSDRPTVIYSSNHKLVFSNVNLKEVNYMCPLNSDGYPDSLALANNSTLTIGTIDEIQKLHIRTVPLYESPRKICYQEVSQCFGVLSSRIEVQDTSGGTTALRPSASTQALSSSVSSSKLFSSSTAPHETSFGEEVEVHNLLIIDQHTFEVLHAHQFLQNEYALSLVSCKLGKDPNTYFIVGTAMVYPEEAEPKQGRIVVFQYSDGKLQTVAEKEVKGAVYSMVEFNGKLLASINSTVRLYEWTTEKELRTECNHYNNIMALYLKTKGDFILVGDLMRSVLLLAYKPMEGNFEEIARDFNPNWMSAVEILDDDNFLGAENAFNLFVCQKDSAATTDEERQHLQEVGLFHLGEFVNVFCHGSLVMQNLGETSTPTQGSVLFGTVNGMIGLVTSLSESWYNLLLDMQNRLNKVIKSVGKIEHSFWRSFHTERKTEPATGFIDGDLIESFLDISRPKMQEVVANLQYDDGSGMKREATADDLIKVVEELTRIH

[1] = target: T2, GST-hHR23A, residues 1–363 (WT hHR23AFL); experiment: pull-down; 1000 pmol GST-tagged hHR23A/B and 1000 pmol NusA–VprFL in 500 μl PBS, 30 min 4 °C; TEV cleavage overnight at 4 °C; Glutathion-Sepharose 4B beads; anti-His immunoblot
[2] = target: T3, GST-hHR23B, residues 1–409; experiment: as above
[3] = target: T4, GST-hHR23B, residues 262–409; experiment: as above

| Binder | binding result [1] | further results |
| --- | --- | --- |
| NusA–Vpr_(1–79) (domain or fragment, HIV-1 Vpr, residues 1-79; source: E. coli Rosetta 2 (DE3) or Rosetta 2 (DE3) pLysS, purified (HisTrap, gel filtration)) MEQAPEDQGPQREPYNEWTLELLEELKSEAVRHFPRIWLHNLGQHIYETYGDTWAGVEAIIRILQQLLFIHFRIGCRHS |  | Kd (Trx-hHR23AFL): 0.64 ± 0.408 µM; Kd (DCAF1_(1045–1396)/DDB1): 0.116 ± 0.047 µM |
| recombinant VprFL (from NusA–VprFL) (natural protein, HIV-1 Vpr, full length (FL); also called VprFL WT; source: recombinant NusA–VprFL) MEQAPEDQGPQREPYNEWTLELLEELKSEAVRHFPRIWLHNLGQHIYETYGDTWAGVEAIIRILQQLLFIHFRIGCRHSRIGVTRQRRARNGASRS | binds | binding result [2]: binds; binding result [3]: binds |
| recombinant VprFL R73A (natural protein, HIV-1 Vpr, full length, with R73A; source: recombinant NusA–VprFL) MEQAPEDQGPQREPYNEWTLELLEELKSEAVRHFPRIWLHNLGQHIYETYGDTWAGVEAIIRILQQLLFIHFAIGCRHSRIGVTRQRRARNGASRS | binds |  |
| recombinant VprFL L67A/I70A (natural protein, HIV-1 Vpr, full length, with L67A and I70A; also called L67A/I70A double mutant; source: recombinant NusA–VprFL) MEQAPEDQGPQREPYNEWTLELLEELKSEAVRHFPRIWLHNLGQHIYETYGDTWAGVEAIIRILQQALFAHFRIGCRHSRIGVTRQRRARNGASRS | binds |  |
| recombinant VprFL Y50S (natural protein, HIV-1 Vpr, full length, with Y50S; source: recombinant NusA–VprFL) MEQAPEDQGPQREPYNEWTLELLEELKSEAVRHFPRIWLHNLGQHIYETSGDTWAGVEAIIRILQQLLFIHFRIGCRHSRIGVTRQRRARNGASRS | binds |  |
| recombinant VprFL H45A (natural protein, HIV-1 Vpr, full length, with H45A; source: recombinant NusA–VprFL) MEQAPEDQGPQREPYNEWTLELLEELKSEAVRHFPRIWLHNLGQAIYETYGDTWAGVEAIIRILQQLLFIHFRIGCRHSRIGVTRQRRARNGASRS | binds |  |

— article PMC8617076, “Structure of HIV-1 Vpr in complex with the human nucleotide excision repair protein hHR23A” (Nature Communications, 2021)
